The data set deals with p110β/p85β-nic. In words: ATPase activity (ADP formation) in the absence of lipid substrate, Transcreener. To be noted: 35 nM complex; Figure 1D. Format: biochemical, mouse. The method, then:
Figure 1 Inhibition of p110β by p85-Type Regulatory Subunits and Activation of the Complexes by RTK Phosphopeptide (A) Domain organization of p110β and the regulatory subunits p85α, p85β, and p55γ. The color scheme for the domains is used for all figures, unless otherwise stated. […] The inhibition is released upon addition of the 10 μM PDGFR pY2. […] The y axis is expressed as a change in fluorescence polarization (ΔmP), which is obtained by subtracting the observed polarization for the construct at a given enzyme concentration from the maximum fluorescence polarization for that construct. The plateau in these assays arises due to the competitive nature of the ADP detection system, based on displacement of ADP-Alexa 633 tracer from the ADP^2-antibody by ADP generated during the PI3K assay (see Supplemental Experimental Procedures). All measurements were done in triplicates, and the error bars indicate the standard error of the mean (SEM). […]
The lipid kinase activity was determined using the Transcreener ADP2 FP Assay (BellBrook Labs, Madison, WI) according to manufacturer‟s specifications. This non-radioactive assay measures activity by quantitating the amount of ADP formed. The ADP formed by PI3K competes with fluorescent ADP tracer for binding to an anti-ADP antibody, thereby decreasing fluorescence polarization. […]

B1: p110β-ΔCter/nic: truncation mutant lacking 17 residues from the p110β C terminus; human ΔCter (1-1053) used in cells (protein, UniProt P42338 1-1053, looked up, fragment)
chain: MCFSFIMPPAMADILDIWAVDSQIASDGSIPVDFLLPTGIYIQLEVPREATISYIKQMLWKQVHNYPMFNLLMDIDSYMFACVNQTAVYEELEDETRRLCDVRPFLPVLKLVTRSCDPGEKLDSKIGVLIGKGLHEFDSLKDPEVNEFRRKMRKFSEEKILSLVGLSWMDWLKQTYPPEHEPSIPENLEDKLYGGKLIVAVHFENCQDVFSFQVSPNMNPIKVNELAIQKRLTIHGKEDEVSPYDYVLQVSGRVEYVFGDHPLIQFQYIRNCVMNRALPHFILVECCKIKKMYEQEMIAIEAAINRNSSNLPLPLPPKKTRIISHVWENNNPFQIVLVKGNKLNTEETVKVHVRAGLFHGTELLCKTIVSSEVSGKNDHIWNEPLEFDINICDLPRMARLCFAVYAVLDKVKTKKSTKTINPSKYQTIRKAGKVHYPVAWVNTMVFDFKGQLRTGDIILHSWSSFPDELEEMLNPMGTVQTNPYTENATALHVKFPENKKQPYYYPPFDKIIEKAAEIASSDSANVSSRGGKKFLPVLKEILDRDPLSQLCENEMDLIWTLRQDCREIFPQSLPKLLLSIKWNKLEDVAQLQALLQIWPKLPPREALELLDFNYPDQYVREYAVGCLRQMSDEELSQYLLQLVQVLKYEPFLDCALSRFLLERALGNRRIGQFLFWHLRSEVHIPAVSVQFGVILEAYCRGSVGHMKVLSKQVEALNKLKTLNSLIKLNAVKLNRAKGKEAMHTCLKQSAYREALSDLQSPLNPCVILSELYVEKCKYMDSKMKPLWLVYNNKVFGEDSVGVIFKNGDDLRQDMLTLQMLRLMDLLWKEAGLDLRMLPYGCLATGDRSGLIEVVSTSETIADIQLNSSNVAAAAAFNKDALLNWLKEYNSGDDLDRAIEEFTLSCAGYCVASYVLGIGDRHSDNIMVKKTGQLFHIDFGHILGNFKSKFGIKRERVPFILTYDFIHVIQQGKTGNTEKFGRFRQCCEDAYLILRRHGNLFITLFALMLTAGLPELTSVKDIQYLKDSLALGKSEEEALKQFKQKFDEALRESW
As to B1, the “ATPase activity in the absence of lipid substrate” value was “increased”.

For the origin of these results see publication PMC3670040, “Structure of Lipid Kinase p110β/p85β Elucidates an Unusual SH2-Domain-Mediated Inhibitory Mechanism” (Molecular Cell, 2011).
